# Patent publication US20230272390A1, “COMPOSITIONS AND METHODS FOR HEMOGLOBIN PRODUCTION” (THE CHILDREN'S HOSPITAL OF PHILADELPHIA, priority 2020, published 2023)
# T1: ZNF410 ZF1-5 (GST fusion) (Homo sapiens, UniProt Q86VK4 SEQ:217-366)
# T1 sequence: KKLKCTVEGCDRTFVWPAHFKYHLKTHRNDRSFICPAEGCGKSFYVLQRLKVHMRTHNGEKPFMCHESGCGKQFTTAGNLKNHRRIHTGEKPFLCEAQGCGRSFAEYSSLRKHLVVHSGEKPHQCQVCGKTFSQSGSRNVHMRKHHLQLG
# T2: ZNF410 ZF1-5 (GST removed) (Homo sapiens, UniProt Q86VK4 SEQ:217-366)
# T2 sequence: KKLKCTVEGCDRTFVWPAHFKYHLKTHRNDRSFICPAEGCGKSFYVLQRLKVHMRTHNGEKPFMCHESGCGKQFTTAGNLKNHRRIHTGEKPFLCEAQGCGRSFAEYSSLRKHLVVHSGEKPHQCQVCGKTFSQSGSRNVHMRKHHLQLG
# T3: endogenous ZNF410 (Homo sapiens, UniProt Q86VK4)
# T3 construct: endogenous in cells; host or cells: HUDEP-2 (HUDEP-2-Cas9) cells, differentiated
# T3 sequence (Q86VK4 1-478): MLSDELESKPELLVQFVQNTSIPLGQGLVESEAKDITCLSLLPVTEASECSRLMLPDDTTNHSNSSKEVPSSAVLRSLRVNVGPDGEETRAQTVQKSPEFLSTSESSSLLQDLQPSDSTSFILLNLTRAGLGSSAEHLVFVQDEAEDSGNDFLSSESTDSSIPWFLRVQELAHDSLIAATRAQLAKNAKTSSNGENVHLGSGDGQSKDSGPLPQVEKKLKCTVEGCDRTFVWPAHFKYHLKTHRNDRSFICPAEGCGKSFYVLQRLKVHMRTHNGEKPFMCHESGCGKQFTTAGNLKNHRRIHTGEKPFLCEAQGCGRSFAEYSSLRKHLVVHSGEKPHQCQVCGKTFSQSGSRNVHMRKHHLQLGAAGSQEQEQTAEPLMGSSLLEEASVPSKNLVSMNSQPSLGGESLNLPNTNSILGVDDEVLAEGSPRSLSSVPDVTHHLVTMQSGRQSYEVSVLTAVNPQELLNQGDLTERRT
# Assays:
# [1] = biological target: T1, ZNF410 ZF1-5 (GST fusion); test: FP; no measurable binding up to 2.5 uM; shares 7/17 bp with consensus; conditions: tags: GST N-terminal (pGEX-6P-1, pXC2180); label: FAM 5' (top strand)
# Description: To further gain insight into the molecular basis of how the ZNF410 tandem ZF domain recognizes its targeting DNA sequence, crystallization of the ZNF410-DNA complex was performed. The binding affinity of the ZNF410 ZF domain (ZF1-5) with the consensus motif was quantified by fluorescence polarization using purified GST fusion protein (Patel, et al. (2016) Methods Enzymol., 573:387-401). […] Next, the crystal structure of the ZF domain in complex with the same 17-bp oligo (5′-3′: […] (SEQ ID NO: 19); 3′-5′: […] (SEQ ID NO: 20)) containing the consensus motif was determined. The structure of the protein-DNA complex was solved by the single-wavelength anomalous diffraction (SAD) method (Hendrickson, et al. (1990) EMBO J., 9:1665-1672) at 2.75 Å resolution. As in conventional C2H2 ZF proteins (Wolfe, et al. (2000) Annu. Rev. Biophys. Biomol. Struct., 29:183-212), each of five fingers of ZNF410 comprises two strands and a helix, with two histidine residues in the helix together with one cysteine in each strand coordinating a zinc ion, forming a characteristic tetrahedral C2-Zn—H2 structural unit that confers rigidity to the fingers. When bound to DNA, ZF1-5 occupies the DNA major groove, with their α-helices toward DNA and the strands and the C2-Zn—H2 units facing outside (FIGS. 6B and C). […]
# [2] = biological target: T2, ZNF410 ZF1-5 (GST removed); test: structure; crystal structure 2.75 A, PDB 6WMI; conditions: tags: none (GST cleaved with PreScission protease); label: FAM 5' (top strand) in FP
# [3] = system: motifs from the CHD4 promoter and enhancer sites; test: EMSA with COS-7 nuclear extracts and radiolabeled probes; format: binding, human; conditions: COS nuclear extracts, FLAG-tagged constructs, radiolabeled CHD4 motif probes
# Description: Nuclear extracts were prepared from COS-7 cells transiently transfected with ZNF410 full-length and ZNF410 ZF1-5 plasmids. FuGENE® 6 (Promega) was used to transfect 5 μg of vector into 100 mm plates of COS-7 cells. A pcDNA3 empty vector was used as control. Cells were harvested 48 hours after transfection and nuclear extracts prepared (Andrews, et al. (1991) Nucleic Acids Res., 19:2499).
# EMSAs were performed (Crossley, et al. (1996) Mol. Cell Biol., 16:1695-1705). The sense oligonucleotide was labelled with [γ-^32P]-adenosine triphosphate (Perkin Elmer) and boiled at 100° C. for 1 minute before addition of the antisense oligonucleotide and annealing of probe via slow cooling from 100° C. to room temperature. Probes were purified using Quick Spin Columns for radio-labelled DNA Purification (Roche). Nuclear extracts were harvested from COS-7 cells and samples and loaded on a 6% native polyacrylamide gel in TBE buffer (45 mM Tris, 45 mM boric acid, 1 mM EDTA). A ‘COS empty’ control lane was included to show binding of any background endogenous protein to the probe. […] Gels were run at 250 V for 1 hour, 45 minutes at 4° C. then dried under vacuum. […]
# ZNF410 contains five tandem C2H2-type zinc fingers (ZFs) potentially involved in DNA binding (FIG. 5A). […] Direct DNA binding by full length (FL) ZNF410 to sequences found at the CHD4 gene was assessed by electrophoretic mobility shift assays (EMSAs). […]
# endogenous ZNF410 = biological target: T3, endogenous ZNF410; test: RT-qPCR in HUDEP-2 cells overexpressing HA-tagged ZNF410 constructs; format: cell-based
# Description: HUDEP-2 cells were cultured and differentiated as described (Kurita, et al. (2013) PLoS One 8:e59890). Briefly, StemSpan™ Serum-Free Expansion Medium (SFEM) supplemented with 50 ng/ml human stem cell factor (SCF), 10 μM dexamethasone, 1 μg/ml doxycycline, 3 IU/ml erythropoietin and 1% penicillin/streptomycin was utilized for routine cell maintenance. Cell density was kept at 0.1-1×10^6/ml. HUDEP-2 cells were differentiated for 6-7 days in IMDM supplemented with 50 ng/ml human SCF, 3 IU/ml erythropoietin, 2.5% fetal bovine serum, 250 μg/ml holo-transferrin, 10 ng/ml heparin, 10 μg/ml insulin, 1 μg/ml doxycycline and 1% penicillin/streptomycin.
# SgRNAs were cloned into a lentiviral U6-sgRNA-EFS-GFP/mCherry expression vector (LRG, Addgene: #65656) by BsmBI digestion. The ZNF410 cDNA (clone ID: OHu10535), CHD4 cDNA (clone ID: OHu28780) were purchased from GenScript and were sub-cloned into a lentiviral vector pSDM101-IRES-GFP. ZNF410 variants were sub-cloned into pSDM101-IRES-GFP vector. The N-terminal HA tag was introduced by PCR. For EMSA, the ZNF410 full length or different ZF versions were sub-cloned into mammalian expression vector pcDNA3.
# Lentivirus was produced as described (Grevet, et al. (2018) Science 361:285-290). Briefly, 10-20 μg of expression vectors, 5-10 μg of pVSVG (pMD2.G) and 7.5-15 μg of psPAX2 package plasmids, and 80 μl of 1 mg/ml polyethylenimine (PEI) were mixed, incubated for 15-20 minutes, and added to HEK293T cells grown in 10 cm plates to above 90% confluence. Media were replaced 6-8 hours post transfection, virus was collected 24 hours and 48 hours post-transfection and pooled. For infection, virus-containing supernatant was mixed with the indicated cell lines with 8 μg/ml polybrene and 10 mM HEPES, and then spun at 2250 rpm for 1.5 hours at room temperature. Infected HUDEP-2 cells were selected for mCherry+ or GFP+ cell sorting at 48 hours post-infection.
# Total RNA was purified using the RNeasy® Plus Mini Kit (Qiagen), including an on-column DNAse treatment using RNase-free DNase set (Qiagen) to remove genomic DNA. Reverse transcription was accomplished using iScript™ Supermix (Bio-Rad). qPCR reactions were prepared with Power SYBR® Green (ThermoFisher Scientific). Quantification was performed using the ΔΔCT method.
# Overexpression of ZF1-5 but not ZF2-4 should compete with endogenous ZNF410 for chromatin binding, thus acting in a dominant-negative manner. To test this hypothesis, a construct containing HA-tagged ZF1-5 or ZF2-4 driven by the EF1α promoter was introduced via lentiviral infection into HUDEP-2 cells. As control, the expression of full-length HA-tagged ZNF410 was forced. […] Moreover, full-length HA-ZNF410 when overexpressed to similar levels to HA-ZF1-5 also produced similar binding patterns (FIG. 4A). […] Thus, the ZF region is sufficient for chromatin occupancy but insufficient for CHD4 gene activation. […] Finally, the impact of ZNF410 expression on γ-globin levels was also measured.
molecule,measurement,setting,value
negative control oligo (dsDNA) DNA 1: TCCACTGCCAGGACCTTT DNA 2: AAAAGGTCCTGGCAGTGG,binding result,[1],no binding
ZNF410 consensus oligo 17 bp (dsDNA) DNA 1: CACATCCCATAATAATG DNA 2: CATTATTATGGGATGTG,binding result,[2],binds
"ZNF410 FL: full-length tagged human ZNF410 (478 amino acids) overexpressed as control (protein, left off: small tags and cut ends, full-length tagged human ZNF410 (478 amino acids) overexpressed as control) MLSDELESKPELLVQFVQNTSIPLGQGLVESEAKDITCLSLLPVTEASECSRLMLPDDTTNHSNSSKEVPSSAVLRSLRVNVGPDGEETRAQTVQKSPEFLSTSESSSLLQDLQPSDSTSFILLNLTRAGLGSSAEHLVFVQDEAEDSGNDFLSSESTDSSIPWFLRVQELAHDSLIAATRAQLAKNAKTSSNGENVHLGSGDGQSKDSGPLPQVEKKLKCTVEGCDRTFVWPAHFKYHLKTHRNDRSFICPAEGCGKSFYVLQRLKVHMRTHNGEKPFMCHESGCGKQFTTAGNLKNHRRIHTGEKPFLCEAQGCGRSFAEYSSLRKHLVVHSGEKPHQCQVCGKTFSQSGSRNVHMRKHHLQLGAAGSQEQEQTAEPLMGSSLLEEASVPSKNLVSMNSQPSLGGESLNLPNTNSILGVDDEVLAEGSPRSLSSVPDVTHHLVTMQSGRQSYEVSVLTAVNPQELLNQGDLTERRT",DNA binding in EMSA,[3],comparable binding to each of the four DNA probes
same,effect on CHD4 expression,endogenous ZNF410; overexpression in HUDEP-2 cells,increased
same,effect on γ-globin mRNA levels,endogenous ZNF410; overexpression in differentiated HUDEP-2 cells,slight decrease
